# Publication PMC5577365 (Nature chemical biology, 2017)
# Ends that are not written are not given here.
# Experiments:
# [1] = molecular target: wild-type Abl1 (ABL1 SH3 domain) (human, UniProt P00519 61-121); experiment: fluorescence polarisation
# [2] = molecular target: Abl1-Pmp52 (ABL1 SH3 domain with Pmp at position 52) (human, 4-phosphomethyl-L-phenylalanine (Pmp) at position 52); experiment: fluorescence polarisation
# wild-type Abl1 (ABL1 SH3 domain), sequence (P00519 whole entry, looked up, the tested form may be a part): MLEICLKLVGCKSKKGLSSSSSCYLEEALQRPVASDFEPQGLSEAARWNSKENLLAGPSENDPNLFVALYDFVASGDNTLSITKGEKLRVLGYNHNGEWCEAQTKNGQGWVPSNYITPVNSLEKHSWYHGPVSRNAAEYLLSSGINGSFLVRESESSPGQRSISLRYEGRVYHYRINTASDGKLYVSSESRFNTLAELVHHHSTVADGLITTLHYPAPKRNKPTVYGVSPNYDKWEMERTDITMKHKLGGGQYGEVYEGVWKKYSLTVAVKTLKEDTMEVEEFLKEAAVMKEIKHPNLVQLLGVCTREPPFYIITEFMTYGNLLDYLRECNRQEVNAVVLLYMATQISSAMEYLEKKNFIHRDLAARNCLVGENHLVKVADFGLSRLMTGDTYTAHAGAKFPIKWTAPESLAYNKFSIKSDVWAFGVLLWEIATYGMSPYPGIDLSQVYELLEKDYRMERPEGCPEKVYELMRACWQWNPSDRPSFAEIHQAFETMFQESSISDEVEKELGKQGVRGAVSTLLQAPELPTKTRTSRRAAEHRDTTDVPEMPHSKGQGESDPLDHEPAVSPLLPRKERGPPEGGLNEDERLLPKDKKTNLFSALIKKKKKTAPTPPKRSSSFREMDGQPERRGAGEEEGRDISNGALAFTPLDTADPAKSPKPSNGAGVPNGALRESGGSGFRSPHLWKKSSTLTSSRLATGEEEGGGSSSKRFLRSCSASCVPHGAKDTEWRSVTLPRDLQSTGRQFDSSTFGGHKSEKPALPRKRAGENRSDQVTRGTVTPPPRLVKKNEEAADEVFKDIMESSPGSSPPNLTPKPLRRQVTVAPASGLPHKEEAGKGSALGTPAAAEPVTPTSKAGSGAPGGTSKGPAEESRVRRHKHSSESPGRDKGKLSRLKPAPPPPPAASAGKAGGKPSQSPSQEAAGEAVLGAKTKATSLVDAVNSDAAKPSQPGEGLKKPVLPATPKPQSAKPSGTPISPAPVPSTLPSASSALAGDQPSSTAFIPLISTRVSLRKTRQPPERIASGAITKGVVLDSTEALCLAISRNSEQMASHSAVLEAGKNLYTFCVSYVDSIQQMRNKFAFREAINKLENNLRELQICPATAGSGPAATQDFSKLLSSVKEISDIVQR
binder,measurement,setting,value
"PPAYPPPPVP (also: FAM label, position not given here) [3BP2 peptide (FAM labeled)]",Kd,[1],5 ± 0.8 µM
same,Kd,[2],5 ± 0.8 µM
